Measured values from US20130266574A1 (Regeneron, published 2013).

T1: full-length hANGPTL4 (amino acid residues 26-406 of SEQ ID NO:476) with a C-terminal hexa-histidine tag (human, UniProt Q9BY76 26-406)
T1 construct: also called hANGPTL4-His; hANGPTL4(26-406)-His
T1 sequence: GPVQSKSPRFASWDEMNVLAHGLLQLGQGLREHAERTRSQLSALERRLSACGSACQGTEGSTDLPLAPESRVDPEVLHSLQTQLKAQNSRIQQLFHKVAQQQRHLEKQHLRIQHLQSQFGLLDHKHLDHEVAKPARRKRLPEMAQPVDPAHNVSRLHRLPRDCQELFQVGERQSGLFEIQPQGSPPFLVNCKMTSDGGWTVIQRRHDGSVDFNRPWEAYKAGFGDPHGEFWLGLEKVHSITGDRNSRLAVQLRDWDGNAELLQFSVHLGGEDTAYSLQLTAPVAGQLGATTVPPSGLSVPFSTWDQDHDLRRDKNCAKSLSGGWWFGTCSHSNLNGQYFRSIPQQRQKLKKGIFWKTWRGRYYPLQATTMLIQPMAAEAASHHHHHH

T2: amino acid residues 26-148 of human ANGPTL4 fused in-line to mouse IgG2a (hANGPTL4-mFc) (human)
T2 construct: contains the N-terminal coiled-coil region
T2 chain: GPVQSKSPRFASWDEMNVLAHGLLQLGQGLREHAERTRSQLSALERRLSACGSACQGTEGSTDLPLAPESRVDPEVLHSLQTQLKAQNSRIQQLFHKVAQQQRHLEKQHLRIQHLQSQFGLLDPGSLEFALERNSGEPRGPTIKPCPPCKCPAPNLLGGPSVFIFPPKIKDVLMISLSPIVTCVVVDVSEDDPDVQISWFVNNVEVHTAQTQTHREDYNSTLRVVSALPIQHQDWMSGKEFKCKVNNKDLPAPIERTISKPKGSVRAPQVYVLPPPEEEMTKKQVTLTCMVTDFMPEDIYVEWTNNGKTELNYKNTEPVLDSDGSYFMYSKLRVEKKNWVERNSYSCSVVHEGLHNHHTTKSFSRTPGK

T3: cynomolgus monkey ANGPTL4 N-terminal region (amino acid residues 1-130 of SEQ ID NO:490) with a C-terminal … (cynomolgus monkey (Macaca fascicularis), UniProt Q9BY76 26-130 (human entry))
T3 construct: also called MfANGPTL4(1-130)-His
T3 chain: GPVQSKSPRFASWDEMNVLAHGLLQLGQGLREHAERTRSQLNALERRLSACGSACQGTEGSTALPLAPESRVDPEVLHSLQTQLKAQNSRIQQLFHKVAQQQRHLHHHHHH

T4: cynomolgus monkey ANGPTL4 N-terminal region (amino acid residues 26-148) with an N-terminal hexa-histidine tag (cynomolgus monkey, UniProt Q9BY76 26-148 (human entry))
T4 chain: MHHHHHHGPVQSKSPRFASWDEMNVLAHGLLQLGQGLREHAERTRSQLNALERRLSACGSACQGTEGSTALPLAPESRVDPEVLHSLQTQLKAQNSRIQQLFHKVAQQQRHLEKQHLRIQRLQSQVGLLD


Tests used:
[1] = target: T1, full-length hANGPTL4 (amino acid …); assay: SPR (Biacore), 25° C., pH 5.75, antigen amino-coupled 450 RU
Description: (§1) Kinetic analysis was performed to measure kₐ and kd, and KD values and half-life of antigen/antibody complex dissociation were calculated. The results are shown in Table 4 (H1H268P) and Table 5 (H1H284P).

[2] = target: T2, amino acid residues 26-148 of human …; assay: SPR (Biacore T100), hANGPTL4-mFc captured by anti-mouse IgG, antibody injected, 37° C.
Description: Antigen-antibody binding and dissociation were monitored in real time at 25° C. and 37° C. Kinetic analysis was performed to calculate KD and half-life of antigen/antibody complex dissociation.

[3] = target: T3, cynomolgus monkey ANGPTL4 N-terminal …; assay: SPR (Biacore), 25° C., pH 7.2, antigen amino-coupled 1,028 RU
Description: as §1

[4] = target: T1, full-length hANGPTL4 (amino acid …); assay: cell-based or functional assay
[5] = target: T2, amino acid residues 26-148 of human …; assay: cell-based or functional assay
[6] = target: T1, full-length hANGPTL4 (amino acid …); assay: cell-based or functional assay; remark: listed apart in the source
[7] = target: T2, amino acid residues 26-148 of human …; assay: cell-based or functional assay
[8] = target: T4, cynomolgus monkey ANGPTL4 N-terminal …; assay: cell-based or functional assay
[9] = target: T1, full-length hANGPTL4 (amino acid …); assay: SPR (Biacore), 25° C., pH 7.2, antigen amino-coupled 450 RU
Description: as §1

[10] = target: T1, full-length hANGPTL4 (amino acid …); assay: cell-based or functional assay; remark: listed apart in the source
[11] = target: T2, amino acid residues 26-148 of human …; assay: cell-based or functional assay
[12] = target: T2, amino acid residues 26-148 of human …; assay: SPR (Biacore), 25° C., pH 5.75, antigen captured by anti-mFc
Description: as §1

| Kd [1] [nM] | koff [1] [s⁻¹] | kon [1] [M⁻¹ s⁻¹] | t1/2 [1] [h] | Kd [2] [nM] | t1/2 [2] [h] | Kd [3] [nM] | koff [3] [s⁻¹] | kon [3] [M⁻¹ s⁻¹] | t1/2 [3] [h] | IC50 (nM) in the LPL inhibition assay, constant ANGPTL4 10 nM [4] [nM] | IC50 (nM) in the LPL inhibition assay, constant ANGPTL4 2 nM [5] [nM] | IC50 (nM) in the LPL bioassay, constant ANGPTL4 10 nM [6] [nM] | IC50 (nM) in the LPL bioassay, constant ANGPTL4 2 nM [7] [nM] | IC50 (nM) in the LPL bioassay, constant ANGPTL4 10 nM [8] [nM] | Kd [9] [nM] | koff [9] [s⁻¹] | kon [9] [M⁻¹ s⁻¹] | t1/2 [9] [h] | % Inhibition of hANGPTL4 Activity (LPL lipase test), hANGPTL4-His (10 nM) [10] [%] | Binder | other results |
| --- | --- | --- | --- | --- | --- | --- | --- | --- | --- | --- | --- | --- | --- | --- | --- | --- | --- | --- | --- | --- | --- |
| 0.483 | 0.000446 | 923000 | 0.433 | 0.389 | 0.95 | 0.122 | 4.76e-05 | 392000 | 4.05 | 0.2 | 0.67 | 0.46 | 0.47 | 0.42 | 0.408 | 0.0002 | 489000 | 0.967 | 80 | H1H268P (antibody, V domains shown, also called entire H1H268 mAb; Full mAb) VH: QVQLQESGAGLLKPSETLSLTCTVYGGSFSIHHWTWIRHPPGKGLEWIGEINHRGSTNYNPSLKSRVTISIDTSKNQFSLKLSAVTAADTAVYYCARGLRFLDWLSSYFDYWGQGTLVTVSS VL: DIQMTQSPSSLSASVGDRVTITCRASQGISDYLAWYQQKPGKVPNLLIYAASALQSGVPSRFSGSGSGTDFTLTISSLQPEDVATYYCQNYNTAPLTFGGGTKVEIK | % Inhibition of hANGPTL4 Activity (LPL lipase test), hANGPTL4-mFc (2 nM) [11]: 76%; Kd [12]: 0.22 nM; koff [12]: 0.000138 s⁻¹; kon [12]: 628000 M⁻¹ s⁻¹; t1/2 [12]: 1.4 h |
| 0.141 | 0.000272 | 1.93e+06 | 0.7 | 0.349 | 1.35 | 0.125 | 5.83e-05 | 467000 | 3.3 | 0.42 | 0.33 | 0.31 | 0.51 | 0.42 | 0.105 | 8.85e-05 | 850000 | 2.17 | 90 | H1H284P (antibody, V domains shown, also called entire H1H284 mAb; Full mAb) VH: QVQLVESGGGVVQPGRSLRLSCAASGFTFSSYGMHWVRQAPGKGLEWMAVISFDGGNKNNADSVKGRFTISRDNSKNTLYLQMNSLRAEDTAVYYCAKEGDRSGHPYFYYYGLDVWGQGTTVTVS VL: DIQLTQSPSFLSASVGDRVTITCWASQGISSYLAWYQQKPGKAPKLLIYAASTLQSGVPSRFSGSGSETEFTLTISSLQPEDFATYYCQQLHSYPLTFGGGTKVEIK | % Inhibition of hANGPTL4 Activity (LPL lipase test), hANGPTL4-mFc (2 nM) [11]: 82%; Kd [12]: 0.0819 nM; koff [12]: 8.91e-05 s⁻¹; kon [12]: 1.09e+06 M⁻¹ s⁻¹; t1/2 [12]: 2.17 h |
